Molecular target: peptide-6 (SEQ ID NO. 15) (Mycobacterium tuberculosis, UniProt P9WPE7)

B1: VH2/VK3: humanized anti-peptide-6 IgG1; heavy chain variable region SEQ ID NO: 21, light chain variable region SEQ ID NO: 26 (antibody, V domains shown)
VH: QVTLKESGPALVKPTQTLTLTCSFSGFSLSTSNMGVGWIRQPAGKGLEWLLHILWNDSKYYNPALKSRLTISKDTYKNQVVLTMTNMDPVDTATYYCARMGGYYGNYGYYAMDYWGQGTLVTVSS
VL: QIVLTQSPATLSLSPGERATLSCTASSSVSSSYLHWYQQKPGKAPKLWIYSTSNLASGVPSRFSGSGSGTDYTLTISSLQPEDFATYYCHQYHRSPPTFGQGTKLEIK
modifications: IgG1 constant regions; VH2 amino acid sequence; VK3 amino acid sequence
Q: How did the “binding to peptide-6 directly compared to VH2/VK2 on the same plate” value turn out when B1 was run?
A: marginally the best binding

Reference: US8680241B2 (priority 2009, dated 2014)
